In patent US9339535 one finds binding data, which are given here for one substance.

This data set concerns the target PapMV coat protein CPΔN5 (disks) (Papaya mosaic virus) (UniProt P16596). The data set can be described thus: EMSA. To be noted: shift with 500 ng (22 pmol as printed) protein in 10 µl, 165 fmol RNA; cooperative; weak affinity; room temperature 60 min. In general terms: In EMSA bound probe runs differently from free probe, usually more slowly.

For the substance PapMV 5' non-coding 80 nt RNA probe, the binding worked out at 500 ng.
